Source: patent US20110189154
Residue numbers refer to the chain shown, from its start.

T1: Tsa1 (S. cerevisiae 2-Cys peroxyredoxin), P34760
T1 chain: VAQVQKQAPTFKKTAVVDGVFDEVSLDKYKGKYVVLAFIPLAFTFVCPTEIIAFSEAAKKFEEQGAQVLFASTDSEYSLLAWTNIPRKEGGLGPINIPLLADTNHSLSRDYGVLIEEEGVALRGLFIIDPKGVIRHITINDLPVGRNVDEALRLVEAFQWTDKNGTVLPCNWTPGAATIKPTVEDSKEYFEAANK

B1: Srx1^Cys106S (S. cerevisiae Srx1 with Cys106 changed to serine) (protein)
chain: MSLQSNSVKPTEIPLSEIRRPLAPVLDPQKIDAMVATMKGIPTASKTCSLEQAEAAASAGELPPVDVLGVRVKGQTLYYAFGGCHRLQAYDRRARETQNAAFPVRSRVLPATPRQIRMYLGSSLDIE
B2: Srx1^Cys48S (S. cerevisiae Srx1 with Cys48 changed to serine) (protein)
chain: B1 chain with C48S, S106C

Target: T1, Tsa1 (S. cerevisiae 2-Cys …)

Protein	reduction of the Cys-SO2H form of Tsa1
B1	the other cysteine mutants have no effect for Srx1^Cys106S
B2	a minor effect for Srx1^Cys48S
